Our source for the Kd values is paper PMC5897525 (2018).

In assay [1] the target is recombinant Fel d 1 produced with a myc-myc-hexahistidine tag (rFel d 1.mmh) (cat, UniProt P30440-1 18-109; P30438 23-92). Description: SPR; 25°C. On the technique in general: SPR reads the build-up and loss of mass on a sensor chip optically.
Assay [2] has as its target rFel d 1.mFc. As to the kind of experiment: SPR; 25°C; dimeric.

recombinant Fel d 1 produced with a myc-myc-hexahistidine tag (rFel d 1.mmh), sequence (P30440 other isoform, or with tags, fused parts or gaps): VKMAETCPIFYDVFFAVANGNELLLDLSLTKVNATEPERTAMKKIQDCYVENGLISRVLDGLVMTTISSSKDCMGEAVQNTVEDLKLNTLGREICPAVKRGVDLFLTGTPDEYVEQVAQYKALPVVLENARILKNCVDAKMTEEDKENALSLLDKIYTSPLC

B1: REGN1909 (antibody, V domains shown)
VH: EVQLVESGGGLVQPGGSLRLSCAASGFTFSSYAMSWVRQAPGKGLEWVSAISGRGYNADYADSVKGRFTISRDNSKNTLYLQMNSLRAEDTAVYYCAKLEYFDYWGQGTLVTVSS
VL: DIQMTQSPSTLSASVGDRVTITCRASQSISSWLAWYQQKPGKAPKLLIYKASSLESGVPSRFSGSGSGTDFTLTISSLRPEDFATYYCQQYNSYPLTFGGGTKVEIK
As for B1, the dissociation constant (Kd) in assay [1] was 0.912 nM; in assay [2], 0.0978 nM.

A word on the Kd: it is the constant that tells how readily two partners part at equilibrium.
